Assay results: patent US20180305450A1 (AstraZeneca / MedImmune, published 2018)

T1: human PAR2 on cells (endogenous in A549 cells; overexpressed in 1321N1-hPAR2-c18 cells) (human, UniProt P55085 37-397)
T1 sequence: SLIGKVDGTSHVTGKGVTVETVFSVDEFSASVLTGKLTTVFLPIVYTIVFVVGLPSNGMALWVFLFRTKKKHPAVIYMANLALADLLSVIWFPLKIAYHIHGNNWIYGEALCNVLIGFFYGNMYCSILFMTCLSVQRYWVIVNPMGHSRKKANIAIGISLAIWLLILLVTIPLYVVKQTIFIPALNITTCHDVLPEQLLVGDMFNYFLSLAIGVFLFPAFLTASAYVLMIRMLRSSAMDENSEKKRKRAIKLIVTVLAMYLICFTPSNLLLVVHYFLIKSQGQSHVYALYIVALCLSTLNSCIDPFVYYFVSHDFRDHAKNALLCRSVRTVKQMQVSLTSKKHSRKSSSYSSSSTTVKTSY

T2: recombinant biotinylated rat PAR2 extracellular residues 1-75, N-terminal AviTag, C-terminal Flag and poly … (rat, UniProt Q63645 26-75, not fully specified; biotin on the AviTag (enzymatic biotinylation))
T2 construct: range 1-75; not shown: N-terminal AviTag (Avidity LLC); C-terminal Flag and poly Histidine tags
T2 chain (looked up): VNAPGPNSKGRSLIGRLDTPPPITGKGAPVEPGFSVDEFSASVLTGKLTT


How the values were obtained:
[1] = biological target: T1, human PAR2 on cells (endogenous in A549 …); test: cell-based or functional assay
[2] = biological target: T3, recombinant biotinylated human PAR2 extracellular domain (residues 1-75), N-terminal AviTag, C-terminal Flag … (human, UniProt P55085 26-75, biotin on the AviTag (enzymatic biotinylation)); test: HTRF competition with Dylight650-Par0067 IgG, IgG
T3 construct: also called Bio-human-PAR2 ECD; human PAR2 ECD; not shown: N-terminal AviTag (Avidity LLC); C-terminal Flag and poly Histidine tags
Protocol: (§1) Parent Par0067 IgG (used as a reference/control in all assays) was pre-diluted to give a 2000 nM stock in each of the two different pH assay buffers (in order to give a top final assay IgG concentration of 500 nM). All test, or other reference/control IgG were tested from a top final assay concentration of ¼ of the neat undiluted sample (i.e. no pre-dilution step was performed). Duplicate 11 point 1:3 serial dilutions then were prepared on 384 well polypropylene Greiner plates in each of the two assay buffers (pH 7.4 & 6.0). 5 μl per well was transferred from the relevant pH IgG dilution plate to the corresponding assay plate (pH 7.4 and pH 6.0). 5 ul of the appropriate pH assay buffer was added to the total and non-specific wells.
(§2) For multipoint dose response curves % Specific Binding values were plotted versus test purified antibody concentration (scFv or IgG). IC₅₀ values were determined via a sigmoidal dose response inhibition variable slope curve fit (4 parameter logistic equation) using Graphpad Prism Software.

[3] = biological target: T3, recombinant biotinylated human PAR2 …; test: HTRF competition with Dylight650-Par0067 IgG, pH 7.4, IgG
Protocol: as §1, §2

[4] = biological target: T3, recombinant biotinylated human PAR2 …; test: Biacore SPR 25 C, pH 6.0; pH 6.0; human PAR2
Protocol: (§3) The experiments were carried out using recombinant human, rat and cynomolgus PAR2 with an N-terminal Avi tag and C-terminal Flag-His tags.
(§4) Streptavidin was covalently immobilised to a C1 chip surface using standard amine coupling techniques at a concentration of 4 μg/ml in 10 mM Sodium acetate pH 4.5. A final streptavidin surface of approximately 30-100 RUs was achieved. Recombinant biotinylated PAR2 species (produced in-house) were titrated onto the streptavidin chip surface at 4 μg/ml in HBS-EP+ buffer to enable Fab binding at saturation (Rₘₐₓ). This low level of analyte binding ensured minimal mass transport effects.
(§5) The anti-PAR2 Fabs were serially diluted (0.39 nM-25 nM) in HBS-EP+ buffer pH 7.4 or MES-BS-EP+ pH 6.0 buffer or in MES-BS-EP+ pH 5.6 buffer and flowed over the chip at 50 μl/min, with 3 minutes association and up to 30 minutes dissociation. Multiple buffer-only injections were made under the same conditions to allow for double reference subtraction of the final sensorgram sets, which were analysed using the BiaEval software (version 2.0.1). The chip surface was fully regenerated with pulses of 4 M MgCl₂.

[5] = biological target: T3, recombinant biotinylated human PAR2 …; test: Biacore SPR 25 C, pH 6.0
Protocol: as §3, §4, §5

[6] = biological target: T2, recombinant biotinylated rat PAR2 …; test: Biacore SPR 25 C, pH 6.0
Protocol: as §3, §4, §5

[7] = biological target: T3, recombinant biotinylated human PAR2 …; test: Biacore SPR 25 C, pH 7.4
Protocol: as §3, §4, §5

[8] = biological target: T2, recombinant biotinylated rat PAR2 …; test: Biacore SPR 25 C, pH 7.4
Protocol: as §3, §4, §5

T3 sequence (P55085 26-75): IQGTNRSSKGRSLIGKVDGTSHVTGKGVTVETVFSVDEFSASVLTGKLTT

Row | IC50 (read off the curve); calcium response to trypsin in presence of PaB670129, human A549 cells [1] [nM] | Fold IC50 pH 7.4 (Variant v Par0067) [2] [fold] | IC50 [3] [nM] | koff [4] [s⁻¹] | kon [4] [M⁻¹ s⁻¹] | Kd [5] [nM] | Kd [6] [nM] | koff [6] [s⁻¹] | kon [6] [M⁻¹ s⁻¹] | Kd [7] [nM] | koff [7] [s⁻¹] | kon [7] [M⁻¹ s⁻¹] | Kd [8] [nM] | koff [8] [s⁻¹] | kon [8] [M⁻¹ s⁻¹] | Binder
1 | ~0.1 | 67.2 | 56.1 | – | – | – | – | – | – | – | – | – | – | – | – | PaB670129 IgG1TM (antibody, V domains shown, IgG1-TM (L234F, L235E, P331S), human lambda light chain; also called ZZ1RUE-F02) VH: EVQLLESGGGLVQPGGSLRLSCAASGFTFSSYAMNWVRQAPGKGLEWVSTISYHGSHISYHDSVHHRFTISRDNSKNTLYLQMNSLRAEDTAVYYCARIHHDPMDVWGQGTLVTVSS VL: SIELTQPPSVSVSPGQTASITCSGDNLGKKYVQWYQQKPGQSPVLVIYDDSNRPSGIPERFSGSNSGNTATLTISGTQAMDEADYYCQTWDGNPTTGETNVFGGGTKLTVL
2 | – | – | – | 14.9 | 7.92e+08 | 18.8 | 37.5 | 0.0589 | 1.57e+06 | 0.957 | 0.00495 | 5.17e+06 | 4.15 | 0.0314 | 7.57e+06 | PaB670136 Fab (Fab, V domains shown, Fab; also called ZZ1RUF-A01) VH: EVQLLESGGGLVQPGGSLRLSCAASGFTFSSYAMNWVRQAPGKGLEWVSTISYHGHHISYADSHHHRFTISRDNSKNTLYLQMNSLRAEDTAVYYCARIHHDPMDHWGQGTLVTVSS VL: SIELTQPPSVSVSPGQTASITCSGDNLGKKYVQWYQQKPGQSPVLVIYDDSNRPSGIPERFSGSNSGNTATLTISGTQAMDEADYYCQTWDGNPTTGETNVFGGGTKLTVL
